# Assay results as given in patent publication US20240270846A1 (published 2024).
# Substitutions are numbered along the chain they refer to. Numbers in names are those of the source.
# B1: GLS3000 V94A one-arm antibody (antibody, human IgG1, kappa, L234A L235A, N297A, name in Kabat numbering)
# light: DIVMTQSPLSLPVTPGEPASISCRSSQSLVHSNRNTYLHWYQQKPGQAPRLLIYKVSNRFSGVPDRFSGSGSGTDFTLKISRVEAEDVGVYYCGQGTQAPYTFGQGTKLEIKRTVAAPSVFIFPPSDEQLKSGTASVVCLLNNFYPREAKVQWKVDNALQSGNSQESVTEQDSKDSTYSLSSTLTLSKADYEKHKVYACEVTHQGLSSPVTKSFNRGEC
# heavy: QVQLVESGGGVVQPGRSLRLSCAASGFTFSNAWMHWVRQAPGKGLEWVAQIKAKSNNYATYYAESVKGRFTISRDDSKNSLYLQMNSLKTEDTAVYYCRYVHYGAYYGVDAWGQGTTVTVSSASTKGPSVFPLAPSSKSTSGGTAALGCLVKDYFPEPVTVSWNSGALTSGVHTFPAVLQSSGLYSLSSVVTVPSSSLGTQTYICNVNHKPSNTKVDKKVEPKSCDKTHTCPPCPAPEAAGGPSVFLFPPKPKDTLMISRTPEVTCVVVDVSHEDPEVKFNWYVDGVEVHNAKTKPREEQYASTYRVVSVLTVLHQDWLNGKEYKCKVSNKALPAPIEKTISKAKGQPREPQVYTLPPSRCELTKNQVSLSCAVKGFYPSDIAVEWESNGQPENNYKTTPPVLDSDGSFFLVSKLTVDKSRWQQGNVFSCSVMHEALHNHYTQKSLSLSPDYKDDDDK
# chain: EPKSSDKTHTCPPCPAPELLGGPSVFLFPPKPKDTLMISRTPEVTCVVVDVSHEDPEVKFNWYVDGVEVHNAKTKPREEQYNSTYRVVSVLTVLHQDWLNGKEYKCKVSNKALPAPIEKTISKAKGQPREPQVCTLPPSRDELTKNQVSLWCLVKGFYPSDIAVEWESNGQPENNYKTTPPVLDSDGSFFLYSKLTVDKSRWQQGNVFSCSVMHEALHNRYTQKSLSLSP
# B2: GLS3000 F55W one-arm antibody (antibody, human IgG1, kappa, L234A L235A, N297A, name in Kabat numbering)
# light: B1 light with F60W, A99V
# heavy: B1 heavy
# chain: B1 chain
# B3: GLS3000 G89V one-arm antibody (antibody, human IgG1, kappa, L234A L235A, N297A, name in Kabat numbering)
# light: B1 light with G94V, A99V
# heavy: B1 heavy
# chain: B1 chain
# B4: GLS3000 F55R one-arm antibody (antibody, human IgG1, kappa, L234A L235A, N297A, name in Kabat numbering)
# light: B1 light with F60R, A99V
# heavy: B1 heavy
# chain: B1 chain
# B5: GLS3000 G89I one-arm antibody (antibody, human IgG1, kappa, L234A L235A, N297A, name in Kabat numbering)
# light: B1 light with G94I, A99V
# heavy: B1 heavy
# chain: B1 chain
# B6: GLS3000 F55M one-arm antibody (antibody, human IgG1, kappa, L234A L235A, N297A, name in Kabat numbering)
# light: B1 light with F60M, A99V
# heavy: B1 heavy
# chain: B1 chain
# B7: GLS3000 G89N one-arm antibody (antibody, human IgG1, kappa, L234A L235A, N297A, name in Kabat numbering)
# light: B1 light with G94N, A99V
# heavy: B1 heavy
# chain: B1 chain
# B8: GLS3000 F55S one-arm antibody (antibody, human IgG1, kappa, L234A L235A, N297A, name in Kabat numbering)
# light: B1 light with F60S, A99V
# heavy: B1 heavy
# chain: B1 chain
# B9: GLS3000 G89P one-arm antibody (antibody, human IgG1, kappa, L234A L235A, N297A, name in Kabat numbering)
# light: B1 light with G94P, A99V
# heavy: B1 heavy
# chain: B1 chain
# B10: GLS3000 F55Y one-arm antibody (antibody, human IgG1, kappa, L234A L235A, N297A, name in Kabat numbering)
# light: B1 light with F60Y, A99V
# heavy: B1 heavy
# chain: B1 chain
# B11: GLS3000 G89R one-arm antibody (antibody, human IgG1, kappa, L234A L235A, N297A, name in Kabat numbering)
# light: B1 light with G94R, A99V
# heavy: B1 heavy
# chain: B1 chain
# B12: GLS3000 F55L one-arm antibody (antibody, human IgG1, kappa, L234A L235A, N297A, name in Kabat numbering)
# light: B1 light with F60L, A99V
# heavy: B1 heavy
# chain: B1 chain
# B13: GLS3000 G89W one-arm antibody (antibody, human IgG1, kappa, L234A L235A, N297A, name in Kabat numbering)
# light: B1 light with G94W, A99V
# heavy: B1 heavy
# chain: B1 chain
# B14: GLS3000 F55I one-arm antibody (antibody, human IgG1, kappa, L234A L235A, N297A, name in Kabat numbering)
# light: B1 light with F60I, A99V
# heavy: B1 heavy
# chain: B1 chain
# B15: GLS3000 G89A one-arm antibody (antibody, human IgG1, kappa, L234A L235A, N297A, name in Kabat numbering)
# light: B1 light with G94A, A99V
# heavy: B1 heavy
# chain: B1 chain
# B16: GLS3000 F55E one-arm antibody (antibody, human IgG1, kappa, L234A L235A, N297A, name in Kabat numbering)
# light: B1 light with F60E, A99V
# heavy: B1 heavy
# chain: B1 chain
# B17: GLS3000 G89E one-arm antibody (antibody, human IgG1, kappa, L234A L235A, N297A, name in Kabat numbering)
# light: B1 light with G94E, A99V
# heavy: B1 heavy
# chain: B1 chain
# B18: GLS3000 F55V one-arm antibody (antibody, human IgG1, kappa, L234A L235A, N297A, name in Kabat numbering)
# light: B1 light with F60V, A99V
# heavy: B1 heavy
# chain: B1 chain
# B19: GLS3000 G89D one-arm antibody (antibody, human IgG1, kappa, L234A L235A, N297A, name in Kabat numbering)
# light: B1 light with G94D, A99V
# heavy: B1 heavy
# chain: B1 chain
# B20: GLS3000 F55P one-arm antibody (antibody, human IgG1, kappa, L234A L235A, N297A, name in Kabat numbering)
# light: B1 light with F60P, A99V
# heavy: B1 heavy
# chain: B1 chain
# B21: GLS3000 G89Q one-arm antibody (antibody, human IgG1, kappa, L234A L235A, N297A, name in Kabat numbering)
# light: B1 light with G94Q, A99V
# heavy: B1 heavy
# chain: B1 chain
# B22: GLS3000 G89L one-arm antibody (antibody, human IgG1, kappa, L234A L235A, N297A, name in Kabat numbering)
# light: B1 light with G94L, A99V
# heavy: B1 heavy
# chain: B1 chain
# B23: GLS3000 F55H one-arm antibody (antibody, human IgG1, kappa, L234A L235A, N297A, name in Kabat numbering)
# light: B1 light with F60H, A99V
# heavy: B1 heavy
# chain: B1 chain
# B24: GLS3000 F55K one-arm antibody (antibody, human IgG1, kappa, L234A L235A, N297A, name in Kabat numbering)
# light: B1 light with F60K, A99V
# heavy: B1 heavy
# chain: B1 chain
# B25: GLS3000 F55Q one-arm antibody (antibody, human IgG1, kappa, L234A L235A, N297A, name in Kabat numbering)
# light: B1 light with F60Q, A99V
# heavy: B1 heavy
# chain: B1 chain
# B26: GLS3000 F55T one-arm antibody (antibody, human IgG1, kappa, L234A L235A, N297A, name in Kabat numbering)
# light: B1 light with F60T, A99V
# heavy: B1 heavy
# chain: B1 chain
# B27: GLS3000 G89F one-arm antibody (antibody, human IgG1, kappa, L234A L235A, N297A, name in Kabat numbering)
# light: B1 light with G94F, A99V
# heavy: B1 heavy
# chain: B1 chain
# B28: GLS3000 F55G one-arm antibody (antibody, human IgG1, kappa, L234A L235A, N297A, name in Kabat numbering)
# light: B1 light with F60G, A99V
# heavy: B1 heavy
# chain: B1 chain
# B29: GLS3000 G89H one-arm antibody (antibody, human IgG1, kappa, L234A L235A, N297A, name in Kabat numbering)
# light: B1 light with G94H, A99V
# heavy: B1 heavy
# chain: B1 chain
# B30: GLS3000 G89K one-arm antibody (antibody, human IgG1, kappa, L234A L235A, N297A, name in Kabat numbering)
# light: B1 light with G94K, A99V
# heavy: B1 heavy
# chain: B1 chain
# B31: GLS3000 F55N one-arm antibody (antibody, human IgG1, kappa, L234A L235A, N297A, name in Kabat numbering)
# light: B1 light with F60N, A99V
# heavy: B1 heavy
# chain: B1 chain
# B32: GLS3000 G89M one-arm antibody (antibody, human IgG1, kappa, L234A L235A, N297A, name in Kabat numbering)
# light: B1 light with G94M, A99V
# heavy: B1 heavy
# chain: B1 chain
# B33: GLS3000 G89T one-arm antibody (antibody, human IgG1, kappa, L234A L235A, N297A, name in Kabat numbering)
# light: B1 light with G94T, A99V
# heavy: B1 heavy
# chain: B1 chain
# Biological target: T1, CD3 epsilon homodimer protein (UniProt P07766 23-126)
# T1 construct: Construct of the homodimer is not described; also called CD3 (CD3 epsilon)
# Experiment: SPR Biacore T200, CD3e homodimer on chip, antibody analyte;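 also: CD3 epsilon homodimer amine-coupled on CM4 sensor chip, antibodies injected as analyte at 25 °C in HBS-EP+, ratio ≥0.8 taken as binding retained versus unaltered parent antibody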
# T1 sequence (P07766 23-126): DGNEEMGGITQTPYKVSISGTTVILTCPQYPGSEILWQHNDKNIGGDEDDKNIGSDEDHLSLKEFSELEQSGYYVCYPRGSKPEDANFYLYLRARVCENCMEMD
row,Binder,ratio of amounts bound (altered form/GLS3000)
1,B1,1.05
2,B2,0.69
3,B3,1.63
4,B4,1.31
5,B5,1.07
6,B6,0.8
7,B7,0.8
8,B8,0.69
9,B9,0.35
10,B10,0.92
11,B11,0.19
12,B12,0.76
13,B13,0.5
14,B14,0.82
15,B15,1.13
16,B16,0.72
17,B17,0.26

row,Binder,ratio of amounts bound (altered form/GLS3000)
1,B18,0.71
2,B19,0.33
3,B20,1.16
4,B21,0.38
5,B22,0.94
6,B23,0.94
7,B24,1.33
8,B25,0.91
9,B26,0.41
10,B27,1.09
11,B28,1.31
12,B29,0.7
13,B30,0.4
14,B31,0.98
15,B32,0.52
16,B33,1.03
